{
  "source": "paper doi:10.1101/2022.08.30.505862",
  "key": {"[1]": {"biological_target": "T1, RBM39 RRM2 (UniProt Q14498 247-332)", "T1 sequence": "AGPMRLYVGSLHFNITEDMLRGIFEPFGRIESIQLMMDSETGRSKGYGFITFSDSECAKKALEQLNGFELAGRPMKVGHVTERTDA", "experiment": "ITC"}, "[2]": {"biological_target": "T2, RBM39 RRM2 F259A (UniProt Q14498 247-332, F259A)", "T2 sequence": "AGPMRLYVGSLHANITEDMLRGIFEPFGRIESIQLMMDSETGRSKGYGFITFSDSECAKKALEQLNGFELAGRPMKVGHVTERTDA", "experiment": "ITC"}, "[3]": {"biological_target": "T3, GB1-RBM39-RRM12 (UniProt Q14498 143-332)", "T3 sequence": "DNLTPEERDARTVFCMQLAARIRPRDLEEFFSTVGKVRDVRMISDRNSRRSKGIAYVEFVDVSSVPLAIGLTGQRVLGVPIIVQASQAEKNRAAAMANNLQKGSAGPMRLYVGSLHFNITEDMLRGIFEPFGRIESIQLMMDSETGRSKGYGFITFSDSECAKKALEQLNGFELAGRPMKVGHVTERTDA", "experiment": "NMR CSP"}, "[4]": {"biological_target": "T1, RBM39 RRM2", "experiment": "NMR CSP"}, "[5]": {"biological_target": "T1, RBM39 RRM2", "experiment": "NMR CSP", "remark": "listed apart in the source"}, "[6]": {"biological_target": "T4, RBM39 RRM1 (UniProt Q14498 142-237)", "T4 sequence": "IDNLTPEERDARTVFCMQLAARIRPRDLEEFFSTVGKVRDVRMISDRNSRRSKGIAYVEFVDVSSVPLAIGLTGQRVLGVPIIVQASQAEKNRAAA", "experiment": "NMR solution structure"}, "[7]": {"biological_target": "T5, RBM39 RRM12 (UniProt Q14498 143-332)", "T5 sequence": "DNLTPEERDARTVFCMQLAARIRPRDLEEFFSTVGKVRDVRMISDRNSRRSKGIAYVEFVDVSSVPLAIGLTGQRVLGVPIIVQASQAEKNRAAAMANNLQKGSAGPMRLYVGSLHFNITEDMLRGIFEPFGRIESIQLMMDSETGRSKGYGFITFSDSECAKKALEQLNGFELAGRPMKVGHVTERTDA", "experiment": "NMR CSP"}},
  "note": "Where two headings read alike, the source gives them in different places.",
  "data": [
    {"binder": "AGCUUUG (ssRNA)", "note": "[AGCUUUG ssRNA]", "values": [
      {"measurement": "Kd", "setting": "[1]", "value": "9 ± 2", "unit": "µM"},
      {"measurement": "binding signal", "setting": "[2]", "value": "4 fold lower affinity than WT"}
    ]},
    {"binder": "GGACUGUCCACAAGACAGUCG (structured_RNA)", "note": "[RBMY stem-loop aptamer]", "values": [
      {"measurement": "binding result", "setting": "[3]", "value": "binds"}
    ]},
    {"binder": "GGGGACUGCGUUCGCGCUUUCCCC (structured_RNA)", "note": "[U1 snRNA SL4]", "values": [
      {"measurement": "binding result", "setting": "[3]", "value": "binds"}
    ]},
    {"binder": "ACCUUUG (ssRNA)", "note": "[BS2 (ACCUUUG)]", "values": [
      {"measurement": "binding result", "setting": "[4]", "value": "binds"}
    ]},
    {"binder": "CCUCCCA (ssRNA)", "note": "[mutBS1 (CCUCCCA)]", "values": [
      {"measurement": "binding result", "setting": "[5]", "value": "no binding"}
    ]},
    {"binder": "GGGAUUUCCCCAAAUGUGGGAAACUCCC (structured_RNA)", "note": "[U1 snRNA SL3]", "values": [
      {"measurement": "binding result", "setting": "[6]", "value": "binds"},
      {"measurement": "binding result", "setting": "[7]", "value": "binds"}
    ]},
    {"binder": "CUCUUUG (ssRNA)", "note": "[BS1 (CUCUUUG)]", "values": [
      {"measurement": "binding result", "setting": "[4]", "value": "binds"}
    ]}
  ]
}
